Test results: patent US20230192857A1 (published 2023)
Like-named read-outs stand apart in the source and are kept apart here. Non-standard residues stand in square brackets, D forms with d. No end group written: not given here. pY = N[C@@H](Cc1ccc(OP(=O)(O)O)cc1)C(=O)O

B1: phosphopeptide corresponding to Tyr392 within the IL-2Rβ (printed 'IL-2R13') cytoplasmic domain (peptide)
peptide: LSGEDDA[pY]CTFPSRDD
B2: phosphopeptide corresponding to Tyr355 within the IL-2Rβ (printed 'IL-2R13') cytoplasmic domain (peptide)
peptide: EIEACQV[pY]FTYDPYSE
B3: phosphopeptide corresponding to Tyr361 within the IL-2Rβ (printed 'IL-2R13') cytoplasmic domain (peptide)
peptide: VYFTYDP[pY]SEEDPDEG

Experiments:
[1] = target: T1, hCIS-SH2-BC complex (recombinant trimeric complex of human GST-CIS-SH2 construct with Elongins B and C) (UniProt Q9NSE2 66-258; Q15370 1-118; Q15369 17-112); assay: ITC
[2] = target: T1, hCIS-SH2-BC complex (recombinant …); assay: ITC; remark: listed apart in the source

| Binder | Kd [1] [nM] | Kd [2] [nM] |
| --- | --- | --- |
| B1 | 1800 | 1800 |
| B2 | 940 | 940 |
| B3 | 1500 | 1500 |
